Measured values reported in paper PMC5289745 (Biochemistry, 2015).

Molecular target: PcrV (residues 25–294) (P. aeruginosa, UniProt G3XD49 25-294)
Assay: SPR

B1: PcrG^9–76-GB1-His6 (domain or fragment)
chain: MEDTLRATVQAAELAIRDSEERGRLLAEMWQGLGLAADAGELLFQAPERELARAAEEELLAELRRMRSSGSENLYFQ
In the case of B1, the Kd is reported as 24 nM.

B2: PcrG-GB1-His6 (natural protein)
chain: MGDMNEYTEDTLRATVQAAELAIRDSEERGRLLAEMWQGLGLAADAGELLFQAPERELARAAEEELLAELRRMRSSQPTQGEQGTRPRRPTPMRGLLIGSENLYFQ
In the case of B2, the Kd is reported as 26 nM.
